From US20250361544A1, “TYPE III-D CRISPR-CAS SYSTEM AND USES THEREOF” (BOARD OF REGENTS, THE UNIVERSITY OF TEXAS SYSTEM, published 2025)

T1: Cas7-Cas7 fusion subunit of the Synechocystis sp. PCC 6803 Type III-Dv complex (Synechocystis sp. PCC 6803)
T1 construct: Untagged, co-expressed from pPF2434 in E. coli; one copy in the complex; also called Cas7-2x; Cas7_2x
T1 chain: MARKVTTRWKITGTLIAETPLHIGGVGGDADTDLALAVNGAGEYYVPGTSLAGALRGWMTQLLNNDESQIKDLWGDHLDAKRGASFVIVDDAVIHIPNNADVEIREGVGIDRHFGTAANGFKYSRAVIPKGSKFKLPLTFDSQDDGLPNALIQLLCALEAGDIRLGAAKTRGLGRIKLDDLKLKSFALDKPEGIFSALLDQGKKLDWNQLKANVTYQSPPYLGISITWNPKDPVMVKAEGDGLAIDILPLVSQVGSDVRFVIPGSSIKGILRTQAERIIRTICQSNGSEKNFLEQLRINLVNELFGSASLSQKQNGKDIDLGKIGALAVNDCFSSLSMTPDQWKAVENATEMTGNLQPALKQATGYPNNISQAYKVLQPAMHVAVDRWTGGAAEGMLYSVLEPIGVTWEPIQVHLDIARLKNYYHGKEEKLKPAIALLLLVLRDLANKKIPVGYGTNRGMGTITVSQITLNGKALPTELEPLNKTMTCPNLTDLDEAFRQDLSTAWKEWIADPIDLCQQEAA

T2: Cas10 subunit of the Synechocystis sp. PCC 6803 Type III-Dv CRISPR-Cas complex, with N-terminal His6 tag and … (Synechocystis sp. PCC 6803)
T2 construct: Whole gene amplified from Synechocystis genomic DNA and co-expressed in E. coli from pPF2434; The complex also holds a 37-nt crRNA; also called His6-TEV-Cas10; N-His6-tagged Cas10; not shown: TEV cleavage was inefficient, so
T2 chain: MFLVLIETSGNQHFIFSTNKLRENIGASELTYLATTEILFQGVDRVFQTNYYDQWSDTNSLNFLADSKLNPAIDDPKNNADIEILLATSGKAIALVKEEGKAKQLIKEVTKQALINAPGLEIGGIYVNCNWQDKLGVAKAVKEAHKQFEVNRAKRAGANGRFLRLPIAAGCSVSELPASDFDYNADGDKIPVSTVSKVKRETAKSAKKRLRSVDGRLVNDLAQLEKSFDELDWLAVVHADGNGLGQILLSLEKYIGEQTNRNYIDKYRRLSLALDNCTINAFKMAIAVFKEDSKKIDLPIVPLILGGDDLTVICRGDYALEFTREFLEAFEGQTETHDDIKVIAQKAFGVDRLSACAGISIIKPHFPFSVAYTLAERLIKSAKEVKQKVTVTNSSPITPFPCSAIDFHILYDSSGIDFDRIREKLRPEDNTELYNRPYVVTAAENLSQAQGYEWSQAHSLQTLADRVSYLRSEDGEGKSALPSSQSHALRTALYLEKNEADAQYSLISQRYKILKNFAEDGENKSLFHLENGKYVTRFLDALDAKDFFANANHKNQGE

B1: Cas7-Cas5-Cas11 fusion subunit of the Synechocystis sp. PCC 6803 Type III-Dv complex (other)
chain: MRGIEITITMQSDWHVGTGMGRGELDSVVQRDGDNLPYIPGKTLTGILRDSCEQVALGLDNGQTRGLWHGWINFIFGDQPALAQGAIEPEPRPALIAIGSAHLDPKLKAAFQGKKQLQEAIAFMKPGVAIDAITGTAKKDFLRFEEVVRLGAKLTAEVELNLPDNLSETNKKVIAGILASGAKLTERLGGKRRRGNGRCELKFSGYSDQQIQWLKDNYQSVDQPPKYQQNKLQSAGDNPEQQPPWHIIPLTIKTLSPVVLPARTVGNVVECLDYIPGRYLLGYIHKTLGEYFDVSQAIAAGDLIITNATIKIDGKAGRATPFCLFGEKLDGGLGKGKGVYNRFQESEPDGIQLKGERGGYVGQFEQEQRNLPNTGKINSELFTHNTIQDDVQRPTSDVGGVYSYEAIIAGQTFVAELRLPDSLVKQITSKNKNWQAQLKATIRIGQSKKDQYGKIEVTSGNSADLPKPTGNNKTLSIWFLSDILLRGDRLNFNATPDDLKKYLENALDIKLKERSDNDLICIALRSQRTESWQVRWGLPRPSLVGWQAGSCLIYDIESGTVNAEKLQELMITGIGDRCTEGYGQIGFNDPLLSASLGKLTAKPKASNNQSQNSQSNPLPTNHPTQDYARLIEKAAWREAIQNKALALASSRAKREEILGIKIMGKDSQPTMTQLGGFRSVLKRLHSRNNRDIVTGYLTALEQVSNRKEKWSNTSQGLTKIRNLVTQENLIWNHLDIDFSPLTITQNGVNQLKSELWAEAVRTLVDAIIRGHKRDLEKAQENESNQQSQGAA
notes: Untagged, co-expressed from pPF2434 in E. coli; one copy in the complex; also called Cas7-5-11; Cas5-Cas7-Cas11
B2: Csx19 subunit of the Synechocystis sp. PCC 6803 Type III-Dv complex (other)
chain: MPAGGRLMKNLYHYHQYEITLESAVDSCKNHLQAAIGLLYSPQKCELVKLDNSGKLVDSYNRLKFNNLGVFEARFFNLNCELRWVNESNGNGTAVLLSESDITLTGFEKGLQEFITAIDQQYLLWGEPAKHPPNADGWQRLAEARIGKLDIPLDNPLKPKDRVFLTSEEYIAEVDDFGNCAVIDERLIKLEVK
notes: Untagged, co-expressed from pPF2434 in E. coli; one copy in the complex

Assays:
[1] = molecular target: T1, Cas7-Cas7 fusion subunit of the …; experiment: cryo-EM structure of the binary complex, 2.5 Å
Protocol: (§1) Fully assembled Type III-D binary complex was diluted to a concentration of 0.3 mg/ml in SEC buffer before 2.5 μl of sample was added to a quantifoil 1.2/1.3 grid that was glow discharged for 1 minute. Sample was applied to the grid in an FEI Vitrobot MarkIV kept at 100% humidity and 4° C. before blotting for 5.5 seconds with a force of 0. For the ssRNA target-bound complex, non-self ssRNA was mixed with the binary complex with a 2:1 molar ratio of RNA:Binary complex in SEC buffer to a final protein concentration of 0.3 mg/mL. Grids of the target-bound complex were frozen identical to that of the binary complex. Both grids were loaded to an FEI Titan Krios (Sauer Structural Biology Lab, University of Texas at Austin) operating at 300 kV. Images were taken at a pixel size of 0.81 Å/pixel with a dose rate of 10.6 e⁻/pixel/s for 5 seconds using a Gatan K3 direct electron detector, giving a final dosage of 80.5 e⁻/Å². Data collection was automated using SerialEM using a defocus range of −1.2 to −2.2 μm.
(§2) To delineate the architecture of this Type III-Dv effector, we used cryo-EM to determine a 2.5-Å resolution structure of the complex containing the nt crRNA (FIG. 1e,f, FIG. 8). To gain preliminary insights, we generated initial models of each subunit using Alphafold 2. […]

[2] = molecular target: B1; experiment: cryo-EM structure (summary of Example 1)
Protocol: as §1

[3] = molecular target: T2, Cas10 subunit of the Synechocystis sp. …; experiment: cryo-EM structure (summary of Example 1)
Protocol: as §1

[4] = molecular target: Type III-Dv effector complex (Cas10, Cas7-Cas5-Cas11, Cas7-2x, Csx19, Cas7-insertion) (Synechocystis sp. PCC 6803); experiment: structure; cryo-EM 2.5 A binary complex with 37-nt crRNA; conditions: tags: N-terminal His6-TEV on Cas10
Protocol: as §1, §2

B1
binding result [1]: binds

B2
binding result [2]: binds | binding result [3]: binds

ACUGAAACUGUAGUAGAACCAAUCGGGGUCGUCAAUA (ssRNA) [mature crRNA spacer 1]
binding result [4]: binds
